The values that follow come from US20260049148.

The subject of this data set is internally quenched peptide probe (MCA)-Gly-Ser-Ala-Ile-Ala-Leu-Tyr-Gly-Gly-Ser-Lys (DNP)-D-Arg with CM AIALY (SEQ ID NO: 5).

human recombinant MMP9 (R&D Systems, catalog No: 911-MP), sequence (chain, as listed by the source): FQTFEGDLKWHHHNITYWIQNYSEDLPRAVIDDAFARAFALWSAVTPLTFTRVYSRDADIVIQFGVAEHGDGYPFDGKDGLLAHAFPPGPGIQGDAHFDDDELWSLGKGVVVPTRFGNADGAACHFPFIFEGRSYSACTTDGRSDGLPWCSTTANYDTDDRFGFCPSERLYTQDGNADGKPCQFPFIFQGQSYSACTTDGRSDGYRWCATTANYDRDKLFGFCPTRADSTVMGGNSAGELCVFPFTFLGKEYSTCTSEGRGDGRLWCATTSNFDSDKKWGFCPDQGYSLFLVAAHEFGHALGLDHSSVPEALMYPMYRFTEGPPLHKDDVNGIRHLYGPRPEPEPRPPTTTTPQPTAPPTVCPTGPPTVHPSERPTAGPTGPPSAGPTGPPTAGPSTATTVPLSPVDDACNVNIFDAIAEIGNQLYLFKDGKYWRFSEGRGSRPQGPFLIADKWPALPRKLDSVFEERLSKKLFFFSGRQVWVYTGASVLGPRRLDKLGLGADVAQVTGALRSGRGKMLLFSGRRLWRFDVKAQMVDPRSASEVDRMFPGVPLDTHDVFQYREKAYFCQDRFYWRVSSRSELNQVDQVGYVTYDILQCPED

In the case of “human recombinant MMP9 (R&D Systems, catalog No: 911-MP)”, the Probe Cleavage (kcat/KM) is 41000 M⁻¹ s⁻¹ and the Probe Cleavage (pM/s) came out at 87.7 pM/s.
